What was measured:
HLA-A*11:01 [1] = experiment: IEDB peptide-MHC binding, purified MHC/direct/fluorescence; filed as Kd, often an IC50 or EC50 that approximates it; ≥ and ≤ were set here for values at or beyond the usual limits of such assays
HLA-A*03:01 [2] = experiment: as above
HLA-A*31:01 [3] = experiment: as above
HLA-A*24:03 = experiment: as above; conditions: source organism: Vibrio cholerae
HLA-A*26:01 [4] = experiment: as above; conditions: source organism: Vibrio cholerae
HLA-B*15:01 [5] = experiment: as above
HLA-B*40:01 = experiment: as above
HLA-A*01:01 = experiment: as above
HLA-B*07:02 [6] = experiment: as above
HLA-B*27:05 = experiment: as above
HLA-B*08:01 = experiment: as above
HLA-A*69:01 [7] = experiment: as above; conditions: source organism: Vibrio cholerae
HLA-A*02:01 [8] = experiment: as above
HLA-B*58:01 = experiment: as above
HLA-B*44:02 = experiment: as above
HLA-B*15:17 = experiment: as above
HLA-B*57:01 [9] = experiment: as above
HLA-B*46:01 [10] = experiment: as above
HLA-B*48:01 = experiment: as above
HLA-A*02:06 = experiment: IEDB peptide-MHC binding, purified MHC/competitive/radioactivity; filed as Kd, often an IC50 or EC50 that approximates it; ≥ and ≤ were set here for values at or beyond the usual limits of such assays
HLA-A*26:01 [11] = experiment: IEDB peptide-MHC binding, purified MHC/competitive/fluorescence; filed as Kd, often an IC50 or EC50 that approximates it; ≥ and ≤ were set here for values at or beyond the usual limits of such assays; conditions: source organism: Homo sapiens
HLA-B*57:01 [12] = experiment: as above; conditions: source organism: Homo sapiens
HLA-B*46:01 [13] = experiment: as above; conditions: source organism: Homo sapiens
HLA-A*69:01 [14] = experiment: as above; conditions: source organism: Homo sapiens
HLA-B*18:01 = experiment: as above; conditions: source organism: Homo sapiens
HLA-B*51:01 [15] = experiment: as above; conditions: source organism: Homo sapiens
HLA-B*27:03 = experiment: as above; conditions: source organism: Homo sapiens
HLA-A*11:01 [16] = experiment: IEDB peptide-MHC binding, purified MHC/competitive/radioactivity; filed as Kd, often an IC50 or EC50 that approximates it; ≥ and ≤ were set here for values at or beyond the usual limits of such assays; conditions: source organism: Vaccinia virus WR
HLA-A*03:01 [17] = experiment: as above; conditions: source organism: Vaccinia virus WR
HLA-A*31:01 [18] = experiment: as above; conditions: source organism: Vaccinia virus WR
HLA-A*33:01 = experiment: as above; conditions: source organism: Vaccinia virus WR
HLA-A*68:01 = experiment: as above; conditions: source organism: Vaccinia virus WR
HLA-B*15:01 [19] = experiment: IEDB peptide-MHC binding, purified MHC/competitive/fluorescence; filed as Kd, often an IC50 or EC50 that approximates it; ≥ and ≤ were set here for values at or beyond the usual limits of such assays; conditions: source organism: Homo sapiens
HLA-B*35:01 = experiment: IEDB peptide-MHC binding, purified MHC/competitive/radioactivity; filed as Kd, often an IC50 or EC50 that approximates it; ≥ and ≤ were set here for values at or beyond the usual limits of such assays; conditions: source organism: Vaccinia virus WR
HLA-B*07:02 [20] = experiment: as above; conditions: source organism: Vaccinia virus WR
HLA-B*53:01 = experiment: as above; conditions: source organism: Vaccinia virus WR
HLA-A*02:02 = experiment: as above; conditions: source organism: Vaccinia virus WR
HLA-B*54:01 = experiment: as above; conditions: source organism: Vaccinia virus WR
HLA-A*68:02 = experiment: as above; conditions: source organism: Vaccinia virus WR
HLA-B*51:01 [21] = experiment: as above; conditions: source organism: Vaccinia virus WR
HLA-A*02:01 [22] = experiment: as above; conditions: source organism: Vaccinia virus WR
HLA-A*02:03 = experiment: as above; conditions: source organism: Vaccinia virus WR
[23] = source organism: Vibrio cholerae
[24] = source organism: Giardia lamblia ATCC 50803
[25] = source organism: Camelpox virus M-96
[26] = source organism: Bacillus cytotoxicus
[27] = source organism: Mammarenavirus lassaense
[28] = source organism: Orthohantavirus dobravaense
[29] = source organism: Vaccinia virus WR
[30] = source organism: Mammarenavirus juninense

Sequence: DSDPMDGCE
- Kd (HLA-A*11:01 [1]; [23]): ≥ 20 µM
- Kd (HLA-A*03:01 [2]; [23]): ≥ 20 µM
- Kd (HLA-A*31:01 [3]; [23]): ≥ 20 µM
- Kd (HLA-A*24:03): ≥ 20 µM
- Kd (HLA-A*26:01 [4]): ≥ 20 µM
- Kd (HLA-B*15:01 [5]; [23]): ≥ 20 µM
- Kd (HLA-B*40:01; [23]): ≥ 20 µM
- Kd (HLA-A*01:01; [23]): ≥ 20 µM
- Kd (HLA-B*07:02 [6]; [23]): ≥ 20 µM
- Kd (HLA-B*27:05; [23]): ≥ 20 µM
- Kd (HLA-B*08:01; [23]): ≥ 20 µM
- Kd (HLA-A*69:01 [7]): ≥ 20 µM
- Kd (HLA-A*02:01 [8]; [23]): ≥ 20 µM
- Kd (HLA-B*58:01; [23]): ≥ 20 µM
- Kd (HLA-B*44:02; [23]): ≥ 20 µM

Sequence: DSPATLSAY
- Kd (HLA-A*11:01 [1]; [24]): ≥ 20 µM
- Kd (HLA-A*03:01 [2]; [24]): ≥ 20 µM
- Kd (HLA-A*31:01 [3]; [24]): ≥ 20 µM
- Kd (HLA-B*15:17; [24]): 5.53 µM
- Kd (HLA-B*15:01 [5]; [24]): ≥ 20 µM
- Kd (HLA-B*57:01 [9]; [24]): ≥ 20 µM
- Kd (HLA-B*40:01; [24]): ≥ 20 µM
- Kd (HLA-A*01:01; [24]): ≥ 20 µM
- Kd (HLA-B*46:01 [10]; [24]): ≥ 20 µM
- Kd (HLA-B*27:05; [24]): ≥ 20 µM
- Kd (HLA-B*48:01; [24]): ≥ 20 µM
- Kd (HLA-A*02:01 [8]; [24]): ≥ 20 µM
- Kd (HLA-B*58:01; [24]): ≥ 20 µM

Sequence: KQIAEHATI
- Kd (HLA-B*48:01; source organism: Bacillus thuringiensis): 0.351 µM

Sequence: KQLGQVMLL
- Kd (HLA-A*02:06; source organism: Dengue virus 2 Jamaica/1409/1983): 0.00517 µM
- Kd (HLA-B*48:01; source organism: dengue virus type 2): 0.0062 µM

Sequence: KQMEDGHTL
- Kd (HLA-A*26:01 [11]): ≥ 20 µM
- Kd (HLA-B*57:01 [12]): ≥ 20 µM
- Kd (HLA-B*46:01 [13]): ≥ 20 µM
- Kd (HLA-A*69:01 [14]): ≥ 20 µM
- Kd (HLA-B*18:01): ≥ 20 µM
- Kd (HLA-B*51:01 [15]): ≥ 20 µM
- Kd (HLA-B*27:03): ≥ 20 µM
- Kd (HLA-A*02:01 [8]; source organism: Rattus norvegicus): 0.0048 µM

Sequence: KSISSIFGY
- Kd (HLA-A*11:01 [16]): 0.00327 µM
- Kd (HLA-A*03:01 [17]): 0.0474 µM
- Kd (HLA-A*31:01 [18]): 0.0866 µM
- Kd (HLA-A*33:01): ≥ 25.2 µM
- Kd (HLA-A*68:01): 6.74 µM
- Kd (HLA-B*15:17; [25]): ≤ 0.001 µM
- Kd (HLA-B*57:01 [9]; [25]): 0.037 µM
- Kd (HLA-B*58:01; [25]): 0.0015 µM

Sequence: KSTSPTRTW
- Kd (HLA-B*15:17; [25]): 0.0024 µM
- Kd (HLA-B*57:01 [9]; [25]): 0.0707 µM
- Kd (HLA-B*58:01; [25]): 0.035 µM

Sequence: KTMMQAHDL
- Kd (HLA-B*15:17; [26]): 0.226 µM
- Kd (HLA-B*57:01 [9]; source organism: Bacillus cereus AH1134): 0.12 µM
- Kd (HLA-B*58:01; [26]): 0.0759 µM

Sequence: LSVSSRCPI
- Kd (HLA-B*15:17; [27]): 0.0041 µM
- Kd (HLA-B*57:01 [9]; [27]): 1.17 µM
- Kd (HLA-B*58:01; [27]): 0.139 µM

Sequence: LVKSAWLSL
- Kd (HLA-A*26:01 [11]): ≥ 20 µM
- Kd (HLA-B*15:01 [19]): ≥ 20 µM
- Kd (HLA-A*69:01 [14]): ≥ 20 µM
- Kd (HLA-B*51:01 [15]): ≥ 20 µM

Sequence: QTSSIEGAW
- Kd (HLA-B*15:17; [28]): 5.78 µM
- Kd (HLA-B*57:01 [9]; [28]): ≥ 20 µM
- Kd (HLA-B*58:01; [28]): ≥ 20 µM

Sequence: SFSLESDSIK
- Kd (HLA-A*11:01 [16]): 5.91 µM
- Kd (HLA-A*03:01 [17]): ≥ 22 µM
- Kd (HLA-A*31:01 [18]): 2.66 µM
- Kd (HLA-B*35:01): ≥ 69.9 µM
- Kd (HLA-A*02:06; [29]): ≥ 59.7 µM
- Kd (HLA-B*07:02 [20]): ≥ 69.6 µM
- Kd (HLA-B*53:01): ≥ 69.9 µM
- Kd (HLA-A*02:02): ≥ 70 µM
- Kd (HLA-B*54:01): ≥ 69.9 µM
- Kd (HLA-A*68:02): ≥ 69.8 µM
- Kd (HLA-B*51:01 [21]): ≥ 69.6 µM
- Kd (HLA-A*33:01): ≥ 70 µM
- Kd (HLA-A*68:01): 7.76 µM
- Kd (HLA-A*02:01 [22]): ≥ 69.4 µM
- Kd (HLA-A*02:03): ≥ 70.4 µM

Sequence: SRLLMRRMR
- Kd (HLA-B*48:01; source organism: Yellow fever virus): ≥ 20 µM

Sequence: TFFSYLMKDK
- Kd (HLA-A*11:01 [16]): 0.0128 µM
- Kd (HLA-A*03:01 [17]): 1.6 µM
- Kd (HLA-A*31:01 [18]): 0.56 µM
- Kd (HLA-B*35:01): ≥ 69.9 µM
- Kd (HLA-A*02:06; [29]): ≥ 69.8 µM
- Kd (HLA-B*07:02 [20]): 16.2 µM
- Kd (HLA-B*53:01): ≥ 24.2 µM
- Kd (HLA-A*02:02): ≥ 50.3 µM
- Kd (HLA-B*54:01): ≥ 69.9 µM
- Kd (HLA-A*68:02): ≥ 69.8 µM
- Kd (HLA-B*51:01 [21]): ≥ 69.6 µM
- Kd (HLA-A*33:01): 2.69 µM
- Kd (HLA-A*68:01): 0.0959 µM
- Kd (HLA-A*02:01 [22]): ≥ 69.4 µM
- Kd (HLA-A*02:03): ≥ 70.4 µM

Sequence: YAKKFKTGM
- Kd (HLA-A*11:01 [1]; [30]): ≥ 20 µM
- Kd (HLA-A*03:01 [2]; [30]): ≥ 20 µM
- Kd (HLA-A*31:01 [3]; [30]): ≥ 20 µM
- Kd (HLA-B*57:01 [9]; [30]): ≥ 20 µM
- Kd (HLA-B*40:01; [30]): ≥ 20 µM
- Kd (HLA-A*01:01; [30]): ≥ 20 µM
- Kd (HLA-B*46:01 [10]; [30]): ≥ 20 µM
- Kd (HLA-B*07:02 [6]; [30]): ≥ 20 µM
- Kd (HLA-B*27:05; [30]): ≥ 20 µM
- Kd (HLA-B*08:01; [30]): 0.417 µM
- Kd (HLA-A*02:01 [8]; [30]): ≥ 20 µM
- Kd (HLA-B*58:01; [30]): ≥ 20 µM
- Kd (HLA-B*44:02; [30]): ≥ 20 µM

— the Immune Epitope Database (IEDB)
